Results from PMC3706957, “Ion Mobility Spectrometry-Mass Spectrometry of Intrinsically Unfolded Proteins: Trying to Put Order into Disorder” (Current Analytical Chemistry, 2013).
Blank lines part the entries; values can stand above or below the molecule they belong to. Bridge positions count the residues as written; N and C are the ends. Square brackets hold non-standard residues; d marks the D form. Ends that are not written are not given here. Gla = N[C@@H](CC(C(=O)O)C(=O)O)C(=O)O

Experiments:
[1] = molecular target: osteocalcin_(17-49) proteolysis fragment (bovine); test: native MS; ESI-IMS-MS of the limited proteolysis mixture of full length calcium-bound holo-osteocalcin at neutral pH (enzyme:substrate 1:300, ammonium acetate); dimer seen as 6+ ions in the drift time distribution of the 3+ ions
[2] = molecular target: the molecule itself; test: native MS; ESI-IMS-MS (nanoESI, travelling wave ion mobility), pH 7, 20 mM ammonium acetate (methods) or 1:1 5 mM ammonium acetate: ammonium formate; protein alone and with Ca^2+, Cu^+ or Zn^2+ salt at protein:salt 1:10; dimer told apart from monomer by drift time and isotope pattern; dimer peak increased significantly with metal ions

- stoichiometry N [1]: 2
Molecule: osteocalcin_(17-49) proteolysis fragment (domain or fragment)

B1: bovine osteocalcin (natural protein, UniProt P02820 52-100, looked up)
chain: YLDHWLGAPAPYPDPL[Gla]PKR[Gla]VC[Gla]LNPDCDELADHIGFQEAYRRFYGPV
modifications: disulfide 23-29
notes: also called apo-osteocalcin; apo-OST; source: purified from bovine bone tissue (EDTA extraction, size exclusion and ion exchange chromatography)
- stoichiometry N [2]: 2
